According to paper PMC7382501:

Biological target: FasRLVL triple mutant (Leu106, Val163 and Leu185 to phenylalanine) (Mycobacterium tuberculosis) (UniProt O05858)
Assay: SEC

Substance: FasRLVL triple mutant (Leu106, Val163 and Leu185 to phenylalanine) (from UniProt O05858 1-228) (natural protein)
- percent eluting as a monomer: < 50%
- percent eluting as the wild-type protein (dimer): > 50%
- stoichiometry N: 2
